For one substance, stoichiometry N results are on record in PMC11633381, “Acarbose impairs gut Bacteroides growth by targeting intracellular glucosidases” (mBio, 2024).

For this test, the target named is BoGH13BSus (BoSusA), periplasmic GH13 neopullulanase of the Bacteroides ovatus Sus (Bacteroides ovatus). As to the kind of experiment: SEC; 0.5 mL of 10.6 mg/mL BoSusA or 8.2 mg/mL SusA on HiPrep 16/60 Sephacryl S-200 HR, 20 mM HEPES, 100 mM NaCl, pH 7.0, 0.5 mL/min; compared with BioRad gel filtration standards. (In general: In gel filtration, larger molecules generally elute earlier.)

What is called stoichiometry N is the number of molecules, sites or subunits per partner or assembly. In the case of “BoGH13BSus (BoSusA), periplasmic GH13 neopullulanase of the Bacteroides ovatus Sus (enzyme)”, the stoichiometry N came to 2.
